Test results as given in patent publication CN117180420A (DRAGONBOAT BIOPHARMACEUTICAL SHANGHAI CO LTD, dated 2023).

Molecular target: T1, CD47 on NUGC-4 cells / hCLDN18.2-NUGC-4 cells (human, UniProt Q08722 19-323)
T1 construct: whole, on cells; also called 内源CD47; 人CD47
Assay: flow cytometry, blocking of SIRPα-mFc binding to hCLDN18.2-NUGC-4 cells

T1 sequence (Q08722 19-323): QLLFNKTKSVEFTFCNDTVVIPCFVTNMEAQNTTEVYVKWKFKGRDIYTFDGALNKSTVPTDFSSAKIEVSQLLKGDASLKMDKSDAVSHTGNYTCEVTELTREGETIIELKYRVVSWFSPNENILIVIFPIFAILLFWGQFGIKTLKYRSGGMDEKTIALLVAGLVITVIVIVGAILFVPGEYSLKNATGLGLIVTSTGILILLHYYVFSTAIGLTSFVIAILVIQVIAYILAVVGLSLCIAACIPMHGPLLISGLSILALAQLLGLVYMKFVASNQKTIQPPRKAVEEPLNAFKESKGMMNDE

B1: 抗体1F8 (WO2018075857A1中1F8抗体) (antibody, V domains shown)
VH: KVQLVESGGGLVKPGGSLRLSCAASGFTFSNAWMNWVRQAPGKGLEWVGRIKRKTDGETTDYAAPVKGRFSISRDDSKNTLYLQMNSLKTEDTAVYYCAGSNRAFDIWGQGTMVTVSA
VL: DIVMTQSPDSLAVSLGERATINCKSSQSVLYSSNNRNYLAWYQQKPGQPPKLLINQASTRASGVPDRFSGSGSGTEFTLIISSLHAEDVAIYYCQQYYTPPLAFGGGTKLEIK
IC50: 1.98 µg/mL
